Experiment: soluble fraction after stress (log2 fold change); higher = more stays soluble; pooled small domains, quantitative proteomics
Conditions: stress: 75 degC
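Further: 20 min heating vs room temperature control held 20 min.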

| Sequence | soluble fraction (log2) |
| --- | --- |
| HMEVTENQEKHAYQEAMDQALRFLAPRFLSRAELTRKLLQKEHDRDVIDAVIDRLEELDYVDDAR | -0.013 |
| HMEVTLGLGSMVRLLGEPYLGSTGRVVELPDQAERFASGLTAKVAVVERHDGELIRVPVTNLLLME | -1.25 |
| HMEVTLTLKSFGTAKVAVIKAIQSITGLGLMDAKKLVDAAPSVIKEKISPSEAEQYKKTLVDAGAEVEI | -2.31 |
| HMEVVVPDFEKIYIRDLDKFVEGHNVRYEIVDSIYNLEKDKGTVVDQDPEPGSKVKHGRVIYLTVNAML | -0.231 |
| HMEVVVPEDLDAALQQASRAQSFFSSLSYTHKKEYVAWINEAKRAETRAMRIQKTITMLESGQRGH | -2.35 |
| HMEWEVHSVTVTPELSGERLDVAATALLSQFSRALVQRWIDANELTLNERPVKAKSKVRVGDLIAVKAK | -1.06 |
| HMEWLENIKKLKKEKGLTNESLSEKSGISVGTLNKLLSGATTDPKLSTLRPLADALEVSLDELLAI | -0.0723 |
| HMEWTDIPTHKVPNVVGKSVEEAKKKLSKFTIEYSGTGEKVVAQSPDAGEKLEEGGTVRLLL | -0.136 |
| HMEYEETMSQIKHNLNLLPRQQRVIIEMAKFDELTPAEIAKQLGISVQTVRNQLSTGLKKLRQLL | 0.0391 |
| HMEYKKKIGELLIDGNKKLKAANIDTYILDTQLLLGKVLGKDKLYLITNKDEEVSNFKEREFYSLIEKRI | 0.0872 |
| HMEYMKQRLYDIIELFKRSFSPSFSEEEKKKLENVLQDDFLRKAYEQLSDEVFIEEKFREFDGY | -2.88 |
| HMEYPNEIARIFNQIPELNVSAVARTLGINKSLLSSYIYGMKKPSPERTEEIKSAIRKIGQNMLAV | -0.927 |
| HMEYQSLVLDFLEQGDFNAEKLKDYQRAFAKQNGMQTLPSKSQILQAYFQLVEEKKINKNSDFELLLRKR | -0.32 |
| HMEYSNLGEALRRLSEIDLQIILLKYSHGFSIKEISKILDIKEVNLYKRNKRALNKLKKILAEMEVLSN | -0.34 |
| HMEYYDDEELDRFRGVEADAYDEDAVNEFRDVLYTLQEIEVAGWLRSLQLRAINLPDELKDEAFLI | -1.48 |
| HMEYYEDEELDRFRGRNSDQYSDAEIEEFNEILTTLRSEEVAGWIRSLQLREIALPDELKDDVILLVG | -0.903 |
| HMEYYIMPVANLHKVVVDGKDMSNLISNNAIAVKANVIDEGQIQIKPGEIIITTPAGVSPEEAVRSP | ≥ 1.04 |
| HMFANQLLLTRFDLNYIKSDVLSRQIDVLGIPIKKLTIEANNKSIWLQGTSQSLSKVRELIGIIDIRENA | -3.38 |
| HMFAQDKKFITYKVKEGETVQSISKALSITPYDLLKLNPDIKDNVSQDDLLIIPNKQYDPLGDI | 0.378 |
| HMFDENVKLIENEYDVSIISRGSELKVMGDVENVDKAARALRSMLAMINKGESLTEQNVRYVLTLVNEGNE | -0.735 |
| HMFDFLELGQAIQDAREKQRITREELAEELGISARHLQSVEKEGQYPSFRLFIQLVTMFHISVDQYI | -0.0535 |
| HMFDLATVKRVAEEAGMKFTIHPVELRAAHPNTAVLTLKSKAGRILVLKAASVGGGRIRVTEIDGVPAD | -0.335 |
| HMFDLDIEQIANDLKHGVMPNLYGLSLQDALYLLEAKGIRVKVAGSGSVVNQSIKTGAYVGSGSVLKLEL | -1.78 |
| HMFDLSQRQEQIIEIVRKHGPITGEKIADLLYVTRAALRPDLAILTMSGYLEAKPRVGYTYK | -1.64 |
| HMFDMLGDQIKKYRKEKKMSQEELAIPLNVVRQTVSKWENNLSVPDAELLIRLAEVLEISVAELLGT | -0.378 |
| HMFDTVFIVRKTSDKPLDGLRTYLNSIGDSLVIGEDDEAFKVHVHTNHPGKVLEEAITYGALQTVKIENMR | -1.07 |

| Sequence | soluble fraction (log2) |
| --- | --- |
| HMFDTVTIGRKIAELRKAHNMTQFELADALGISFQAVSNWERGASMPDISKLPELAEIFGVTIDEVLGK | -1.5 |
| HMFEATGKITGTEVSFRRKPTTDSERILFFDINTEFRVIGINNGWYKGVYQGKTGYVRSDFVEIVGG | -2.05 |
| HMFEEPYLATYPVLIDPKLAFNVLDTMLEGLEVKMDQDEETGAISVLAPASIHTKITEYLDALSKQ | -0.0924 |
| HMFEERKKDWNLTGLLDDVIRRYIHQLTNDELNEINLEKSSGMPDEEIKNGIKLPLAVMQQRRETWGS | -0.252 |
| HMFEQRLRQAMKELRLKQVQVAGLTGKSRGAISQYLSGDRVPPDGVQREMAIALGLEADYFSR | -0.85 |
| HMFERFIFTDEVYIRLKKSGLPQTTLRPLLEIHGKSFDHNEINIILSGLIPNQDFERYAQIIKSHSRF | -4.24 |
| HMFEYDEIMEQSVPKIAWGSLLTIMKKASSHKEMLWYINETYKNGWSRSMVLNQIAMASYERSLIE | -0.732 |
| HMFFDKIIVDFLADGSRIDKYISTLYPDISRTHIQRLIAEQFILVNDSVVKSNYKLSTNDVVLIHIPEA | -3.01 |
| HMFFMTMGEKIQLLRKKQNWSQETLAEKLSVSRQAVSLWERDESQPELDKLLKLAKIFSVTTDYLIDDSVT | -3.19 |
| HMFGGIEFGWSQLPDGRVEYIIQLDDQAIAALKNGRSLTSSLPPEVQNADRIRIQYGAGPVEKGLLLQ | -0.206 |
| HMFIEMDEPEKILHRILNEANGKLELDKIGYRAEWPIGKVLTVLMSLELKGVVQSHPGKVYSL | -0.371 |
| HMFIGFLHQLKEAGVPVSIREYLDFLSGLDKGITNLNTNSFYHFARASLVKDERHYDRFDRTFSEFFEGAL | -3 |
| HMFIQLSQEEKKVVEGLQQRSKTHLDALALEVGQNISKTAAMLMELEMKGVVRALPGKYYEL | -1.1 |
| HMFKEVPVPDVKGMTLEEAKLALEKEGFILGKTEEAESTEVAAGKIISQNLEAGKIAKQGTSVNLVVSKGK | 0.454 |
| HMFKLPRTIGTFEDSDVVIGAGKFGPYIMHNKKFVSLPKSEDPLTIGLERAIELISAKREQEKQRH | 0.265 |
| HMFLPFFDNLRKAGVPVSLREFLGFLEGMKAGLATYDIDAFYFLARTTMVKDERNLDKFDRAFSATFKG | -1.02 |
| HMFNDGEIAIYTDPRGDAGETQIWKRGKGYYGQNDSFDFEAKDKKELEMKLKRWGYVLIAGSIDE | -0.435 |
| HMFNGDPTTRESILASARAEIDQYGIIGLRLSAVAEKAQVSVPLIYKYFEDRDGLLAVVLGDW | -1.21 |
| HMFNTWLGEIRSNTGANVRSGPDASAAIVDARPNETVVRVIGQSGNWLQIGDKQFVAQSLVAP | -0.0837 |
| HMFPDLTGDELRIVDLLNTANDLQVNIITAKTNLPISRVTSLLFQLEMKGVVKPLAGGMYHLLG | -1.49 |
| HMFPELDEEEQKITKLLQAQNDLPANIIAVKTALNIGTTQAKLFSLEMKGVVKPYAGGFYHLL | -2.73 |
| HMFPNLTNEEQQVMKVLAKTNDLQINMLSVQSNLPIARLTALLFSMEMKGVVKTLAGGVYHLL | -4.27 |
| HMFPNSFSEREKEVVDLLLQAKSNKQIAFSLGITNRTVEYHLGNIFAKLGVSSRSEAILTITNYKNQ | -2.35 |
| HMFPQVEVQLIYSYKSDRILNKMLKEFNVVILNQVFKDDILTSFHMNYSLVNQLITKIKSYPDISYKIIN | -1.82 |
| HMFPTLNEDEQTIVSALQKINDQPINTLSIHTALPIPRLTSLLFQLEIKGVIKQLAGGTYHVL | -2.84 |
| HMFQLSNEAKQQVLGELKRYESKQSAVLPALYIGQKDNKGHITPEVIRELSKVMDIPESQINEVFTFYTM | -0.287 |

| Sequence | soluble fraction (log2) |
| --- | --- |
| HMFQRLPFSFANRYKMVLEYQHPERPPVLYYVEPLKAAAILEVSRVIKSGFTPQAIVSDEFEKKLTEAYQR | -2.76 |
| HMFRMTPQRMAILAEVQNAERHLTAAEIYERVRRKYPTIAYGTVYRTLHLLAKHGLIQEFPFGDNASLFDR | -0.159 |
| HMFRPRIEPGAKGSYVLEVQKRLAKLGYEHAGFDGVYGPGTERAIMQLQRDKGLPVTGIVDMRTYEALGLF | -0.99 |
| HMFRSTLEELKHQISGFLKANQSQEFTAQNLADGLRMTSIAEYKRVVNAMDALVRDGELTFDAGKYQYNPN | -0.234 |
| HMFSMKDFGQRLRQLRKERGLTQGDLARLAKIDIMQVSRYERGLGLPSLETAIALARVLETSTDLLFLG | -3.52 |
| HMFSPSDEDLELAHRQIRAFEEVEANGKSIAVVDGRIVESLHIVTARDTLEKAKAITALAEEM | 0.000997 |
| HMFSVVDKITLQEELKKLSKKEQLLIQLRYYDELNQEEIAKIFHVSQVQISRMEKKIIEKLKKQF | -3.44 |
| HMFTDEELEHIRSALIQAGIRLSKELGLQKMSVEKLTAAVGIAKGSFYMFFGSKEDFILEVAEYTGAQ | -0.976 |
| HMFTEEEMTKLRHELILAGIRLSRELGLQRMSVEKITSAVGIAKGSFYIFFDSKEDFILEIADHANRE | -1.1 |
| HMFTEEQMDWLRLIKDHIVASLSILPEDLELTPFDRKGGLLGFYDAFGDEYEKILQEMNEELVA | -0.567 |
| HMFTEIMAERNALIQAIQQNLPPQHIQSILSKKNKFRLEDLTNEELRDVWQWILNQRQAQQHQQQ | -0.0958 |
| HMFTGELESRVFELNYVDGLVASAALAGVLTDKGSATPIASRAGGENDMLLVVDRIASYSQIEKIITQLD | 0.0191 |
| HMFTKSNLEKLSNSELILKAIDSGNYSKIEFGGSEALNPDVPSYKKDLKNREELIEILSEMGM | 0.148 |
| HMFVNADEIAKGLSPFNPSSVAIEAGRLMLKRIGELLSAGVSFSVETTLSTRSYINLIQQAQNQGYSVSL | 0.822 |
| HMFVVVPDLIGKTINQFEEDLSELNLKYVVSDSGNFNPEFKINAVLDQSPKANSKVKDGRKIYLTLNAS | -0.434 |
| HMFWRKIDFYGLNLSTYRNIINIGSDYNYIYLDLGNIYKILNPITGKIIEEQDLVMNIDNINWSS | 0.283 |
| HMFYNDLINFDVFRDSRKIGKIENINSRLPQPVFEIMYDSRIVLIPIHEDFIRKIDKVNNIIYLDIPDGLL | -2.99 |
| HMGAAFITSSKDNAINIRQSANTDSKVIETVTNGQILESNEKSGEWHKVTYYDNDIKKSFTGYVHEGQLK | 0.0505 |
| HMGAAIEYGDRGNTVLQAQRLLIARGYMAGSADGIYGRQMEQAVKRFQKEQGLPESGVVDRRTLQVLIRSR | -1.63 |
| HMGAARRFEMSEGGSQKFWEVAVEGPALTVRFGKLGTAGTTQTKTLASAEAAAKEADKLVREKTKKGYAP | -0.199 |
| HMGAATQADIARVQELLNRLGYDAGSPDGLMGPRTRDAILEYQLTEGLETTGTVTRETLASLEARL | 0.0156 |
| HMGAGFREAIPPALDGERIDRVVSLLAYVSRNRAAGALAAGSVSVDGEVVFQRSRRVREGEELVVTGFERE | -1.01 |
| HMGAITGLQSRVAFLKGQGTITDAEAKTAMAFLPDPTDSKEVKIAKIGQAREYIMSLIENRA | -0.267 |
| HMGAIVTGTVVEIRSDVVIVNAGLKSEGVVPIEQFRNEAGELEVSVGDEVKVALDALEDGFGETRLS | -0.347 |
| HMGAIVTVPDLAGRPQPGAEAELRRSGLVPKVRTSYSLTGTRGTVISQTPPAGSRVREGAEVEVVVSRGLN | 0.00469 |
